Results taken from PMC6831305, “Secreted protein acidic and rich in cysteine mediates active targeting of human serum albumin in U87MG xenograft mouse models” (Theranostics, 2019).

Tests used:
[1] = target: T1, FNR648-labeled human serum albumin (human, UniProt P02768 25-609, FNR648 fluorescence dye conjugated (site not stated)); assay: co-IP; SPARC and FNR648-HSA incubated 2 h at 4 °C after pre-clearing (normal rabbit serum, protein A/G PLUS-Agarose); precipitated with rabbit anti-SPARC antibody and protein A/G PLUS-Agarose; 8% SDS-PAGE, FNR648 fluorescence in the gel read by IVIS; conditions: both partners purified
T1 construct: human serum albumin (HSA), human; The pre-clearing step of the IP names plain 'HSA'; the detected species is FNR648-HSA; also called FNR648-HSA; HSA
T1 sequence (P02768 25-609): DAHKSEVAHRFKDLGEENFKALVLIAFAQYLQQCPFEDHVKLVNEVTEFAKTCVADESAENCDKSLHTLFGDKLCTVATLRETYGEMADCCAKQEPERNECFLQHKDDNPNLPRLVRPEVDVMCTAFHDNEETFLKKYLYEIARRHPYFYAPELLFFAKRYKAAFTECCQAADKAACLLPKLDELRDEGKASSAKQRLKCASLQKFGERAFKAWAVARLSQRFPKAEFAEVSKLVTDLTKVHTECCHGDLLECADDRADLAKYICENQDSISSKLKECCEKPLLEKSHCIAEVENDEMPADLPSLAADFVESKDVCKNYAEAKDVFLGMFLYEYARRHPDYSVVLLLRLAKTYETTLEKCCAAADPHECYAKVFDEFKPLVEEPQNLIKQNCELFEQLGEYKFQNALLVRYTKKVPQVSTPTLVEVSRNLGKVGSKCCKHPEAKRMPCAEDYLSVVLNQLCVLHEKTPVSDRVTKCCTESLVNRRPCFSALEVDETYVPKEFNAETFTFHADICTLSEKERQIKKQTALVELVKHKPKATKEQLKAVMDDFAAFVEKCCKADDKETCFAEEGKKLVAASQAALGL

[2] = target: T1, FNR648-labeled human serum albumin; assay: FRET or BRET; Cy3-SPARC (donor) and FNR648-HSA (acceptor) added to U87MG cells; confocal imaging, excitation 514 nm, emission 540-600 nm (Cy3-SPARC) and 640-750 nm (FNR648-HSA); line ROI analysis; conditions: both partners purified

Row | binding result [1] | binding result [2] | Binder
1 | binds |  | recombinant human SPARC (secreted protein acidic and rich in cysteine) (natural protein, UniProt P09486 18-303, looked up, secreted protein acidic and rich in cysteine (SPARC), human, recombinant, cell-derived; also called exogenous SPARC; source: bought: R&D system (cell-derived, 941-SP)) APQQEALPDETEVVEETVAEVTEVSVGANPVQVEVGEFDDGAEETEEEVVAENPCQNHHCKHGKVCELDENNTPMCVCQDPTSCPAPIGEFEKVCSNDNKTFDSSCHFFATKCTLEGTKKGHKLHLDYIGPCKYIPPCLDSELTEFPLRMRDWLKNVLVTLYERDEDNNLLTEKQKLRVKKIHENEKRLEAGDHPVELLARDFEKNYNMYIFPVHWQFGQLDQHPIDGYLSHTELAPLRAPLIPMEHCTTRFFETCDLDNDKYIALDEWAGCFGIKQKDIDKDLVI
2 |  | binds | Cy3-labeled recombinant human SPARC (natural protein, UniProt P09486 18-303, looked up, ADIBO-NHS conjugated, then Cy3-azide by click reaction (sites not given), secreted protein acidic and rich in cysteine (SPARC), human, recombinant, cell-derived; Same bought protein as m2, with the Cy3 label; also called Cy3-SPARC; fluorescence-labeled SPARC; source: bought: R&D system (cell-derived, 941-SP), then labelled via ADIBO-NHS and Cy3-azide click reaction) APQQEALPDETEVVEETVAEVTEVSVGANPVQVEVGEFDDGAEETEEEVVAENPCQNHHCKHGKVCELDENNTPMCVCQDPTSCPAPIGEFEKVCSNDNKTFDSSCHFFATKCTLEGTKKGHKLHLDYIGPCKYIPPCLDSELTEFPLRMRDWLKNVLVTLYERDEDNNLLTEKQKLRVKKIHENEKRLEAGDHPVELLARDFEKNYNMYIFPVHWQFGQLDQHPIDGYLSHTELAPLRAPLIPMEHCTTRFFETCDLDNDKYIALDEWAGCFGIKQKDIDKDLVI
